Test results: patent KR20140009174A (dated 2014)
Changes are numbered by the printed parent chain. In names and notes the source's numbering stands.

B1: 항-CXCR4 키메라 Mab c515H7 (antibody, human IgG1, kappa, V domains shown)
VH: EVNLVESGGGLVQPGGSLRLSCATSGFTFTDNYMSWVRQPPGKALEWLGFIRNKANGYTTDYSASVRGRFTISRDNSQSILYLQMNALRAEDSATYYCARDVGSNYFDYWGQGTTLTVSS
VL: DIVMSQSPSSLAVSAGEKVTMSCKSSQSLFNSRTRKNYLAWYQQKPGQSPKLLIYWASARDSGVPARFTGSGSETYFTLTISRVQAEDLAVYYCMQSFNLRTFGQGTKVEIKR
B2: 항-CXCR4 Mab 515H7 (마우스 모노클론 항체) (antibody, V domains shown)
VH: B1 VH
VL: DIVMSQSPSSLAVSAGEKVTMSCKSSQSLFNSRTRKNYLAWYQQKPGQSPKLLIYWASARDSGVPARFTGSGSETYFTLTISRVQAEDLAVYYCMQSFNLRTFGGGTKLEIK
B3: hz515H7 VH1 D76N VL2.1 (antibody, V domains shown)
VH: EVQLVESGGGLVQPGRSLRLSCTASGFTFTDNYMSWVRQAPGKGLEWVGFIRNKANGYTTEYAASVKGRFTISRDNSKSIAYLQMNSLKTEDTAVYYCARDVGSNYFDYWGQGTLVTVSS
VL: B1 VL with S5T, S9D, A15L, K18R, V19A, S49P, A66D, T69S
B4: hz515H7 VH1 D76N VL2.3 (antibody, V domains shown)
VH: B3 VH
VL: B1 VL with S5T, S9D, A15L, K18R, V19A, S49P, A66D, R83S, V84L
B5: hz515H7 VH1 D76N VL2.2 (antibody, V domains shown)
VH: B3 VH
VL: B1 VL with S5T, S9D, A15L, K18R, V19A, S49P, A66D, L89V
B6: hz515H7 VH1 D76N VL2 (antibody, V domains shown)
VH: B3 VH
VL: B1 VL with S5T, A15L, K18R, V19A
notes: also called hz515H7 VH1 D76N-VL2 Mab; 인간화 515H7 Mab
B7: 515H7 인간화 VH 변형체 1 (VH1) + 마우스/키메라 VL (cVL) (antibody, human IgG1, kappa)
heavy: not shown
light: DIVMSQSPSSLAVSAGEKVTMSCKSSQSLFNSRTRKNYLAWYQQKPGQSPKLLIYWASARDSGVPARFTGSGSETYFTLTISRVQAEDLAVYYCMQSFNLRTFGQGTKVEIKRTVAAPSVFIFPPSDEQLKSGTASVVCLLNNFYPREAKVQWKVDNALQSGNSQESVTEQDSKDSTYSLSSTLTLSKADYEKHKVYACEVTHQGLSSPVTKSFNRGEC
notes: also called VH1 cVL; VH 변형체 1 (VH1) 마우스 VL 조합
B8: hz515H7 VH1 VL2 (VH 변형체 1 + VL 변형체 2) (antibody, human IgG1, kappa)
heavy: not shown
light: B7 light with S5T, A15L, K18R, V19A
B9: 항-CXCR4 Mab 301aE5 (마우스 모노클론 항체) (antibody, V domains shown)
VH: QVQLKESGPGLVAPSQSLSITCTVSGFSLTDYGVYWVRQPPGKGLEWLGMIWGDGTTDYNSALKSRLSISKDNSKSQVFLKMNTLQTDDTARYYCARGRQFGFDYWGQGTTLTVSS
VL: B2 VL with S22R, Y55F, A59I, D61E, A66D, E74G, Y76D, R83S, M95K, F98Y

What was measured:
[1] = target: T1, 인간 CXCR4 (케모카인 (C-X-C 모티브) 수용체 4) (human, UniProt P61073 1-352); test: cell-based or functional assay
[2] = target: CXCR4/Rluc + CXCR4/YFP (HEK293 세포의 CXCR4 동종이량체 BRET 파트너) (human; Renilla reniformis); test: cell-based or functional assay
[3] = target: T1, 인간 CXCR4 (케모카인 (C-X-C 모티브) 수용체 4); test: FACS on NIH3T3-CXCR4 cells (legend of Fig. 21)
[4] = target: T1, 인간 CXCR4 (케모카인 (C-X-C 모티브) 수용체 4); test: competition flow cytometry on NIH3T3-CXCR4 cells; competitor biotinylated mouse 515H7
[5] = target: T1, 인간 CXCR4 (케모카인 (C-X-C 모티브) 수용체 4); test: competition flow cytometry on NIH3T3-CXCR4 cells; competitor biotinylated mouse 515H7 (legend of Fig. 19)

Chain of CXCR4/Rluc + CXCR4/YFP (HEK293 세포의 CXCR4 동종이량체 BRET 파트너) (human; Renilla reniformis) (chain, as listed by the source, chain 1 of 2): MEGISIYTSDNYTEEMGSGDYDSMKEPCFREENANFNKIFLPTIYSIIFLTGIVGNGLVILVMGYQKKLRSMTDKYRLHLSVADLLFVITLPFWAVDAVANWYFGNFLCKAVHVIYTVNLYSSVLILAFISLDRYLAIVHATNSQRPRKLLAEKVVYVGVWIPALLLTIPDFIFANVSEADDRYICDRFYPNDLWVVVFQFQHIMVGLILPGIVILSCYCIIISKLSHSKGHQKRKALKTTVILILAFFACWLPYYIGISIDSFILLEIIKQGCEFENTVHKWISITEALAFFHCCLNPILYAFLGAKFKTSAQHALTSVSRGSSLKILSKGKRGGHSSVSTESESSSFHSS
Chain of CXCR4/Rluc + CXCR4/YFP (HEK293 세포의 CXCR4 동종이량체 BRET 파트너) (human; Renilla reniformis) (chain, as listed by the source, chain 2 of 2): as the sequence (chain, as listed by the source, chain 1 of 2) above
T1 sequence (P61073 whole entry): as the sequence (chain, as listed by the source, chain 1 of 2) above

Binder | SDF-1-유도성 BRET 증가의 저해 [2] [%] | SDF-1-유도성 BRET 증가의 저해 백분율 [2] [%] | binding result [3] | other results
B1 | 96 |  |  | IC50, 89.6 복제 저해, 마라비록 2 μg/ml 첨가 시 [1]: 0.2 µg/mL; IC50, 인간 PBMC에서 이중 친화성 X4R5 바이러스 89.6 복제 저해 (다수 회차 검정법) [1]: 2 µg/mL
B2 | 69 |  |  | 
B3 |  | 65 | binds | 
B4 |  | 21 | binds | 
B5 |  | 33 | binds | 
B6 |  | ~88 | binds | 
B7 |  |  |  | binding result [4]: binds
B8 |  |  |  | binding result [5]: binds
B9 | 69 |  |  | 
